In one data set the target is T1, DDIAS OB fold WT (Homo sapiens, UniProt Q8IXT1 1-168).
T1 sequence: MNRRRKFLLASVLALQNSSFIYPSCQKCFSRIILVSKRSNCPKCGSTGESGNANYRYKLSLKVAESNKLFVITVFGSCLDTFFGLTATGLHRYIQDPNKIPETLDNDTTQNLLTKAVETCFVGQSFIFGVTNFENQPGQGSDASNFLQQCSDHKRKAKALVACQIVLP
Nature of the data set: EMSA. For orientation: A gel shift assay detects complexes by their altered migration in electrophoresis.

For a further data set, the target named is T2, DDIAS OB fold C25A/C28A (Homo sapiens, UniProt Q8IXT1 1-168, C25A;C28A).
T2 sequence: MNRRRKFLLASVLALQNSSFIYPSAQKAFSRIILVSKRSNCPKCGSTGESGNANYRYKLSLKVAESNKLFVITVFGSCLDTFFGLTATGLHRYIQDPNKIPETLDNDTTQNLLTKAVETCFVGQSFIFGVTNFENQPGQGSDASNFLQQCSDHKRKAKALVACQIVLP
Nature of the data set: EMSA.

Data set [1] deals with recombinant TOPBP1 BRCT domains 7+8 (residues 1263-1495) (human, UniProt Q92547 1263-1495). The data set can be described thus: fluorescence polarisation.
Chain of recombinant TOPBP1 BRCT domains 7+8 (residues 1263-1495) (Q92547 1263-1495): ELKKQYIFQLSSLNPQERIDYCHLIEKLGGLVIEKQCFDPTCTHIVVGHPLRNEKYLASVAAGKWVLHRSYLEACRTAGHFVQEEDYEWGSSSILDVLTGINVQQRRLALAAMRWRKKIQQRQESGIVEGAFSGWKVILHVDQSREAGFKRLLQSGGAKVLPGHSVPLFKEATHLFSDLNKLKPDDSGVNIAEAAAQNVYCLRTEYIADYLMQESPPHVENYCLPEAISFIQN
For data set [2], the target named is recombinant TOPBP1 BRCT domains 4+5 (residues 548-741) (human, UniProt Q92547 548-741). The data set can be described thus: fluorescence polarisation.
Chain of recombinant TOPBP1 BRCT domains 4+5 (residues 548-741) (Q92547 548-741): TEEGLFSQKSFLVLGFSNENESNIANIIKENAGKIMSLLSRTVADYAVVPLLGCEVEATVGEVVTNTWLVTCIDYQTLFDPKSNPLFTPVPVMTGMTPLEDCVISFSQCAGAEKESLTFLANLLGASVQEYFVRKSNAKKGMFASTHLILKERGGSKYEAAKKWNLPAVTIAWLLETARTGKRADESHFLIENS

Square brackets hold non-standard residues; d marks the D form. Ends that are not written are not given here. * marks the point of attachment. 5FAM = O=C1OC2(c3ccc(O)cc3Oc3cc(O)ccc32)c2ccc(C(=O)*)cc21; pT = C[C@@H](OP(=O)(O)O)[C@H](N)C(=O)O; pS = N[C@@H](COP(=O)(O)O)C(=O)O

B1: Cy5 40-nt ssDNA (ssDNA)
DNA: GATGAGATTGAGGCTGGCCTGCAGGCATGCAAGCACCTGG
As for B1, the binding result with DDIAS OB fold WT is recorded as “binds”; with DDIAS OB fold C25A/C28A, “no binding”.

B2: Cy5 40-bp dsDNA (dsDNA)
DNA 1: GATGAGATTGAGGCTGGCCTGCAGGCATGCAAGCACCTGG
DNA 2: CCAGGTGCTTGCATGCCTGCAGGCCAGCCTCAATCTCATC
Consider B2, for which the binding result in the data set with DDIAS OB fold WT is listed as “no binding”.

B3: DDIAS-pS993 peptide, 5-carboxy-fluorescein labelled (peptide)
peptide: 5FAM-GSGETRSAW[pS]PELFS
modifications: also: phosphoserine at Ser993 (position not mappable)
As for B3, the binding result in data set [1] is listed as “binds”.

B4: DDIAS-pT868 peptide, 5-carboxy-fluorescein labelled (peptide)
peptide: 5FAM-GSGETDSDEWVPP[pT]TQK
modifications: also: phosphothreonine at Thr868 (position not mappable)
As for B4, in data set [2], the binding result was “binds”.

B5: DDIAS-pS676 peptide, 5-carboxy-fluorescein labelled (peptide)
peptide: 5FAM-GSGEGSYDA[pS]ADLFDD
modifications: also: phosphoserine at Ser676 (S6 or S10)
As for B5, the binding result in data set [1] is recorded as “binds”.

The record behind these values is doi:10.1101/2025.09.09.675193 (bioRxiv, 2025).
